Data: patent publication US20160102367A1 (TRUSTEES OF COLUMBIA UNIVERSITY IN THE CITY OF NEW YORK, published 2016)
Values belong to the binder of their own block, whether it stands above or below them. Non-standard residues stand in square brackets, D forms with d. No end group written: not given here. *: point of attachment. Biotin = O=C1N[C@H]2[C@H](CS[C@H]2CCCCC(=O)*)N1; pY = N[C@@H](Cc1ccc(OP(=O)(O)O)cc1)C(=O)O

Columns and labels:
Test in all cases: streptavidin-biotin peptide pull down, anti-GST Western blot
[1] = molecular target: T1, GST-FYN-SH2 (wild type FYN SH2 domain, codons 148-231, N-terminal GST tag) (UniProt P06241 148-231)
T1 construct: range 148-231; Expressed in E. coli Rosetta 2(DE3) and purified on glutathione Sepharose; also called GST-SH2-FYN; GST-FYN SH2 domain; not shown: N-terminal GST tag from the pGEX4-T1 vector
Experimental: (§1) GST-tagged FYN SH2 domain proteins were purified by binding them to immobilized glutathione Sepharose beads (Thermo scientific) and eluting them with 50 mM reduced Glutathione, 50 mM Tris, pH 7.4, 150 mM NaCl, 5% glycerol, 5 mM β-mercaptoethanol. Protein expression and purity were assessed by Coomassie staining. Binding assay was performed with Pull-Down Biotinylated Protein-protein Interaction Kit (Thermo scientific) according to the manufacturer's instructions using an amino acid 527-537 FYN biotinylated peptide (biotin-[…])(SEQ ID NO: 1); an amino acid 527-537 pY531 FYN biotinylated peptide (biotin-TEPQpYQPGENL)(SEQ ID NO: 2) and an amino acid 527-537 […] FYN biotinylated peptide (biotin-[…])(SEQ ID NO: 3) (Anaspec Inc). Synthetic biotinylated peptides were incubated with purified GST-FYN SH2 domain, mutant FYN SH2 domain or GST alone for 1 h at 4° C. Interacting proteins were resolved on 10% SDS-polyacrylamide gel electrophoresis (SDS-PAGE) and transferred to a PVDF membrane and subjected to Western blot with an anti-GST antibody.
(§2) In addition, structure model analysis of FYN and FYN mutant proteins further supported this hypothesis. (See FIG. 4C which is a molecular ribbon representation of wild type FYN protein structure showing the positioning of the FYN SH2 domain and the C terminal Tyr531 phosphosite and FIG. 4D which illustrates structure modeling of FYN Tyr531His, FYN Arg176Cys and FYN Leu174Arg mutant proteins.) The interaction between GST-FYN-SH2 recombinant proteins and biotinylated C-terminal FYN peptides encompassing the position Tyr531 was analyzed. In these assays, wild type GST-FYN-SH2 was effectively pulled down with a Tyr531 phosphopeptide, but not with the corresponding unphosphorylated sequence or with a peptide containing a Tyr531His substitution. […]

GST-SH2-FYN Leu174Arg = molecular target: T2, GST-SH2-FYN Leu174Arg (Homo sapiens (Human), UniProt P06241 148-231)
T2 construct: also called GST-FYN-SH2 L174R; not shown: The N-terminal GST tag and the pGEX4-T1 linker
Experimental: as §1, §2

GST-SH2-FYN Arg176Cys = molecular target: T3, GST-SH2-FYN Arg176Cys (Homo sapiens (Human), UniProt P06241 148-231)
T3 construct: also called GST-FYN-SH2 R176C; not shown: The N-terminal GST tag and the pGEX4-T1 linker
Experimental: as §1, §2

T2 sequence (P06241 148-231 L174R limits assumed): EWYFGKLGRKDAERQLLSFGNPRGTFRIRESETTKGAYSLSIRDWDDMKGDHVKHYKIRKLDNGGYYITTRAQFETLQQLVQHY
T3 sequence (P06241 148-231 R176C limits assumed): as the sequence (P06241 148-231 L174R limits assumed) above, with R27L, R29C counted along it
T1 sequence (P06241 148-231): as the sequence (P06241 148-231 L174R limits assumed) above, with R27L counted along it

binding result [1]: no binding
B1: amino acid 527-537 Y51H FYN biotinylated peptide (biotin-TEPQHQPGENL) (peptide)
peptide: Biotin-TEPQHQPGENL
notes: also called mutant Tyr531His FYN C-terminal peptide

binding result (GST-SH2-FYN Leu174Arg): no binding
binding result (GST-SH2-FYN Arg176Cys): no binding
B2: amino acid 527-537 pY531 FYN biotinylated peptide (biotin-TEPQpYQPGENL) (peptide)
peptide: Biotin-TEPQ[pY]QPGENL
notes: Synthetic peptide (Anaspec Inc); also called Tyr531 phosphopeptide; P-Tyr531 FYN C-terminal peptide
